Assay: soluble on expression in E. coli; label from the status in PepcDB or PDB records

Row | Sequence | soluble on expression in E. coli
1 | SQIFASDGKTQLARIVPPDGNRTEVPIDKIPEVTRNAVLAAEDREFYTNSGFSFTGFGRAILGQLTGDASAGGGSTITQQYVKNMVVGNDYSYMRKAKELVYSVKMANEWSKDEVLGAYLNTIYFGRNAYGIDAAAHAYFGVPASELNVGQSAMLAATIQRPSQLDPWSNR | not soluble
2 | SQRRGQLSRRLVNSADRDPSDENSLSRAPAPACTSRGTHVVETTSLKRHSKVLRSQDASGTAESVNSQTPDDEVDHTLWTLVREVSDAEAAFWALRNDSRLLGFVLRSQLLALVHDDSSVTDFLEAAQQPTDVGDVQAEFILCWVPVPGGPAILWRADYQRLIEEQVARRLSELEDPARKAALWGTTREQVERDTHIRAADGSCWLRTLPCPPSVIRALTQGQKALVQQVKRMGRYGRLPLHRAELLRLSRTCFSARFHILDAVGCGTLALDAQNTLSKEPYLCLPEVRTTNIVDSGEIGF | soluble
3 | SREEMSLGCQEAFEIFKRDHADSVTIDDNKQILKQRFSEAKALGESINEARSKIGHLKEEITQRHIQQVALGISENMAVPLMPDQQEEKLRSQLEEEKRRYKTMFTRLKALKVEIEHLQLLMDKAKVKLQKEFEVWWAEEATNLQVNSPAVNSLDHTKPFLQTSDSQHEWSQLLSNKSSGGWEVQDQGTGRFDVCDVNARKILPSPCPSPHSQKQSSTSTPLEDSIPKRPVSSIPLTGDSQTDSDIIAFIKARQSILQKQCLGSN | soluble
4 | SRQHTSISDYDVMILDLTDVPMLDVTVGLALENAIKDALDARCEVYLLCPNQRTREQLEKFHVIDLVPDNNMYQFRYEALNAAVAHVESDQYQRMTA | not soluble
5 | SRRLGKSLGINSIPCKFCSYDCVYCQVGRTINKTIERREFYSPEDIFKSVEERIGKLNNEKIDYLTFVADGEPTLDINLSKEVEMLRDFDIPIAIITNSSLIWREDVRNDILNFDLVSFKVDSVDEKIWREINRPHKDLVLDKILEGMIAFRDNYKGELITETMILGSIKYTEESIIKTAEFLKELNPNKCYLNTPIRPPSEKYIKPPKIEVITKILAIFNEIIGKNKIKLLGKFE | not soluble
6 | SRTPAKGNGADPIRLPVRSGIRESRLEFHYHYSNFLVYGEAGSGKTKSIGKWLLSEYMRLGFAGFIYDFKDTDYTRTAYNLIKRHRYPHKFYYVSFDRPERSYRFNPLKVVRDRTELIQLMEDVLLALLPKKEQQNEWVAGGLGILRGVAFRFWDEFPEHCTLPHILAFIMTASARQLSLFLQQNLVSEMLAGAYLKAEGSEKTQASYLSTLCNNLATISQNEEIAYVLSGDDFDFNLIDPETPKLFAVSNNFSKNSVYAPVISMLMTISARQFSMQNRVPFVYFLDEMTTVNIKNFETLPSVLREYKAAFILLTQSGAKLENLYGKLDRSSVEANFGNMFLGRTKDVEALKYYPLFFGKEEKERRSRSSGKSGASSSSSVTVSSQKEDIYQGKDFADLEPGEFIGSATRANVSYFKVKLEMYDDRNEEPLPDVRVLEPGELGRNFARILEEVRELFPCE | not soluble
7 | SSFKREGDDWSQLNVLKKRRVGDLLASYIPEDEALMLRDGRFACAICPHRPVLDTLAMLTAHRAGKKHLSSLKLFYGKKQTGKGTEQNPRQQNELKTESKTEAPLLTQTRIITQNALHRAPHYNSCCRRKHRPEAPAPSVSSPPLPTAEVQLQSAEISKEPEPRERSDAKESAALLASAPMSPTKRRVLNHYLTLRSSGWVPDGRGRWIKDENVEFDSDEEEPPDLPLD | soluble
8 | SSGSTVDSTTLCLFDVDGTLTAARQKATADMHEFLSKLKQRVKVGVVGGSDLDKIKEQLGDDVIDRVDYVFAENGLVAYRFGKLHSVQNIQAYLGEDILQEFINFCLNYLSKIKLPKKRGTFIEFRNGMLNVSPIGRSCSQQERIEFFELDKKEKIRETFVSVLKEEFAGKGLAFSIGGQISFDVFPEGWDKRYCLGIVEKDSYQHIHFFGDKTMPGGNDYEIFVDPRTIGHEVKSPEDTQRICRELFFS | soluble
9 | SSNFSSERIRYAKWFLEHGFNIIPIDPESKKPVLKEWQKYSHEMPSDEEKQRFLKMIEEGYNYAIPGGQKGLVILDFESKEKLKAWIGESALEELCRKTLCTNTVHGGIHIYVLSNDIPPHKINPLFEENGKGIIDLQSYNSYVLGLGSCVNHLHCTTDKCPWKEQNYTTCYTLYNELKEISKVDLKSLLRFLAEKGKRLGITLSKTAKEWLEGKKEEEDTVVEFEELRKELVKRDSGKPVEKIKEEICTKSPPKLIKEIICENKTYADVNIDRSRGDWHVILYLMKHGVTDPDKILELLPRDSKAKENEKWNTQKYFVITLSKAWSVVKKYLEA | soluble
10 | SSPTMTSSLRLRTLILGKQRWIKPRNFYQFCDKYAIGYENKKNNSLRNHKILRFNDGSVANYRIYEFEIYNFNSDSWKVFDFTPDWDISFTDLSVSLKGYTYWLIRSNGLIQEYYARSLRKMMIKNY | soluble
11 | SSRFSITYKHDFYGGVEGEVTGGSALLCCPQEDIKSFLSEPVYSRLCASAWALTIECPSDPRTPSGTPGPLGTVPWRWGSLGMGGPLLPTAPTPRERERRGGQPAQRWSAEEGQEGSADGEAEATQELILAVVQEGAEGQCQGQGRKLLLQRGAHDPVTVHRAFKKEVGLGQVQLIPKGGTGVLHPGAGLKLHTHLQLVTGFVVIRRMHACLAQRYCSQPVVQCVFPS | soluble
12 | STMPLAELGARLYREKACFSCHSIDGSRLVGPSFKGLYGSTRTFEDGTTAVADENYLRESILQPGAKVVQGYPNVMPASYASLSEREVAALIEFIKQQQ | soluble
13 | STQDADRTLKRLQLQMDNLESRVALECKEAFAELQTDINELTNHMDGVQIPFLDYRTYAVRVLFPGIEAHPVLKELDTPPNVEKALRLFGQLLHSRAFLLTFIHTLEAQSSFSMRDRGTVASLTMVALQSRLDYATGLLKQLLADLIEKNLESKNHPKLLLRRTESVAEKMLTNWFTFLLHKFLKECAGEPLFLLYCAIKQQMEKGPIDAITGEARYSLSEDKLIRQQIDYKTLTLHCVCPESEGSAQVPVKVLNCDSITQAKDKLLDTVYKGIPYSQRPKAEDMDLEWRQGRMARIILQDEDITTKIECDWKRVNSLAHYQVTDGSLVALVPKQVSAYNMANSFTFTRSLSRYESLLRAASSPDSLRSRAPMLTPDQEAGTKLWHLVRNHDHTDHREGDRGSKMVSEIYLTRLLATKGTLQKFVDDLFETVFSTAHRGSALPLAIKYMFDFLDEQADQRQISDPDVRHTWKSNCLPLRFWVNVIKNPQFVFDIHKNSITDACLSVVAQTFMDSCSTSEHRLGKDSPSNKLLYAKDIPNYKSWVERYYRDIAKMASISDQDMDAYLVEQSRLHANDFNVLSALSELYFYVTKYRQEILTSLDRDASCRKHKLRQKLEQIITLVSSSS | soluble
14 | SWVWNQMFVLEEFSGPEPILVGRLHTDLDPGSKKIKYILSGDGAGTIFQINDITGDIHAIKRLDREEKAEYTLTAQAVDFETNKPLEPPSEFIIKVQDINDNAPEFLNGPYHATVPEMSILGTSVTNVTATDADDPVYGNSAKLVYSILEGQPYFSIEPETAIIKTALPNMDREAKEEYLVVIQAKDMGGHSGGLSGTTTLTVTLTDVNDNPPKFAQSLYHFSVPEDVVLGTAIGRVKANDQDIGENAQSSYDIIDGDGTALFEITSDAQAQDGVIRLRKPLDFETKKSYTLKVEAANIHIDPRFSSRGPFKDTATVKIVVE | soluble
15 | SYDSPDYTDESCTFKISLRNFRSILSWELKNHSIVPTHYTLLYTIMSKPEDLKVVKNCANTTRSFCDLTDEWRSTHEAYVTVLEGFSGNTTLFSCSHNFWLAIDMSFEPPEFEIVGFTNHINVMVKFPSIVEEELQFDLSLVIEEQSEGIVKKHKPEIKGNMSGNFTYIIDKLIPNTNYCVSVYLEHSDEQAVIKSPLKCTLLPPGQESEFS | soluble
16 | TDINSLRTRLRSGEHAFADTLAFIADGYDYQPQPFRNGDVDNAAGQNEGSCKTLGLALLEGLSDEEALLAFGEHYRSVQATPEGSDHGNIRALIKHGLAGVTFEGEPLKRK | not soluble

Reference: the DeepSol protein solubility set
